In patent publication US8603949B2, “Libraries of optimized cytochrome P450 enzymes and the optimized P450 enzymes” (California Institute of Technology, priority 2003, dated 2013):
Structures can show the parent of a compound that is named as a salt.

B1: Chimera 50-140: CYP102A1 heme domain with residues 50-140 from CYP102A2 (protein)
chain: TIKEMPQPKTFGELKNLPLLNTDKPVQALMKIADELGEIFKFEAPGRVTIVVSGHELVKEVCDEERFDKSIEGALEKVRAFSGDGLATSWTHEPNWRKAHNILMPTFSQRAMKDYHEKMVDIAVQLIQKWARLNPNEAVDVPEDMTRLTLDTIGLCGFNYRFNSFYRDQPHPFITSMVRALDEAMNKLQRANPDDPAYDENKRQFQEDIKVMNDLVDKIIADRKASGEQSDDLLTHMLNGKDPETGEPLDDENIRYQIITFLIAGHETTSGLLSFALYFLVKNPHVLQKAAEEAARVLVDPVPSYKQVKQLKYVGMVLNEALRLWPTAPAFSLYAKEDTVLGGEYPLEKGDELMVLIPQLHRDKTIWGDDVEEFRPERFENPSAIPQHAFKPFGNGQRACIGQQFALHEATLVLGMMLKHFDFEDHTNYELDIKETLTLKPEGFVVKAKSKKIPLGGIPSPST
modifications: Chimeric Cytochrome P450 heme group sequence from Bacillus megaterium and Bacillus subtilis
notes: CYP102A1 heme domain with residues 50-140 from CYP102A2
B2: Chimera 65-256: CYP102A1 heme domain with residues 65-256 from CYP102A2 (protein)
chain: TIKEMPQPKTFGELKNLPLLNTDKPVQALMKIADELGEIFKFEAPGRVTRYLSSQRLIKEACDEERFDKSIEGALEKVRAFSGDGLATSWTHEPNWRKAHNILMPTFSQRAMKDYHEKMVDIAVQLIQKWARLNPNEAVDVPGDMTRLTLDTIGLCGFNYRFNSYYRETPHPFINSMVRALDEAMHQMQRLDVQDKLMVRTKRQFRYDIQTMFSLVDSIIAERRANGDQDEKDLLARMLNVEDPETGEKLDDENIRFQIITFLIAGHETTSGLLSFALYFLVKNPHVLQKAAEEAARVLVDPVPSYKQVKQLKYVGMVLNEALRLWPTAPAFSLYAKEDTVLGGEYPLEKGDELMVLIPQLHRDKTIWGDDVEEFRPERFENPSAIPQHAFKPFGNGQRACIGQQFALHEATLVLGMMLKHFDFEDHTNYELDIKETLTLKPEGFVVKAKSKKIPLGGIPSPST
modifications: Chimeric Cytochrome P450 heme group sequence from Bacillus megaterium and Bacillus subtilis
notes: CYP102A1 heme domain with residues 65-256 from CYP102A2
B3: Chimera 277-365: CYP102A1 heme domain with residues 277-365 from CYP102A2 (protein)
chain: TIKEMPQPKTFGELKNLPLLNTDKPVQALMKIADELGEIFKFEAPGRVTRYLSSQRLIKEACDESRFDKNLSQALKFVRDFAGDGLATSWTHEKNWKKAHNILLPSFSQQAMKGYHAMMVDIAVQLVQKWERLNADEHIEVPEDMTRLTLDTIGLCGFNYRFNSFYRDQPHPFITSMVRALDEAMNKLQRANPDDPAYDENKRQFQEDIKVMNDLVDKIIADRKASGEQSDDLLTHMLNGKDPETGEPLDDENIRYQIITFLIAGHETTSGLLSFATYFLLKHPDKLKKAYEEVDRVLTDAAPTYKQVLELTYIRMILNESLRLWPTAPAFSLYPKEDTVIGGKFPITTNDRISVLIPQLHRDRDIWGDDVEEFRPERFENPSAIPQHAFKPFGNGQRACIGQQFALHEATLVLGMMLKHFDFEDHTNYELDIKETLTLKPEGFVVKAKSKKIPLGGIPSPST
modifications: Chimeric Cytochrome P450 heme group sequence from Bacillus megaterium and Bacillus subtilis
notes: CYP102A1 heme domain with residues 277-365 from CYP102A2
B4: Chimera 46-73: CYP102A1 heme domain with residues 46-73 from CYP102A2 (protein)
chain: TIKEMPQPKTFGELKNLPLLNTDKPVQALMKIADELGEIFKFEAPAGTTIVVSGHELVKEVCDEERFDKSIEGALKFVRDFAGDGLATSWTHEKNWKKAHNILLPSFSQQAMKGYHAMMVDIAVQLVQKWERLNADEHIEVPEDMTRLTLDTIGLCGFNYRFNSFYRDQPHPFITSMVRALDEAMNKLQRANPDDPAYDENKRQFQEDIKVMNDLVDKIIADRKASGEQSDDLLTHMLNGKDPETGEPLDDENIRYQIITFLIAGHETTSGLLSFALYFLVKNPHVLQKAAEEAARVLVDPVPSYKQVKQLKYVGMVLNEALRLWPTAPAFSLYAKEDTVLGGEYPLEKGDELMVLIPQLHRDKTIWGDDVEEFRPERFENPSAIPQHAFKPFGNGQRACIGQQFALHEATLVLGMMLKHFDFEDHTNYELDIKETLTLKPEGFVVKAKSKKIPLGGIPSPST
modifications: Chimeric Cytochrome P450 heme group sequence from Bacillus megaterium and Bacillus subtilis
notes: CYP102A1 heme domain with residues 46-73 from CYP102A2
B5: Chimera 118-194: CYP102A1 heme domain with residues 118-194 from CYP102A2 (protein)
chain: TIKEMPQPKTFGELKNLPLLNTDKPVQALMKIADELGEIFKFEAPGRVTRYLSSQRLIKEACDESRFDKNLSQALKFVRDFAGDGLATSWTHEKNWKKAHNILLPSFSQQAMKGYHAKMVDIAVQLIQKWARLNPNEAVDVPGDMTRLTLDTIGLCGFNYRFNSYYRETPHPFINSMVRALDEAMHQMQRLDVQDPAYDENKRQFQEDIKVMNDLVDKIIADRKASGEQSDDLLTHMLNGKDPETGEPLDDENIRYQIITFLIAGHETTSGLLSFALYFLVKNPHVLQKAAEEAARVLVDPVPSYKQVKQLKYVGMVLNEALRLWPTAPAFSLYAKEDTVLGGEYPLEKGDELMVLIPQLHRDKTIWGDDVEEFRPERFENPSAIPQHAFKPFGNGQRACIGQQFALHEATLVLGMMLKHFDFEDHTNYELDIKETLTLKPEGFVVKAKSKKIPLGGIPSPST
modifications: Chimeric Cytochrome P450 heme group sequence from Bacillus megaterium and Bacillus subtilis
notes: CYP102A1 heme domain with residues 118-194 from CYP102A2

Legend:
Mammalian P450 = conditions: cited from earlier work
[1] = Peroxygenase substrate activity profile; assay type: biochemical; conditions: 20 mM H2O2
Procedure: (§1) The chimeras were assayed for hydroxylation of p-nitrophenoxydodecanoic acid (12-pNCA), a fatty acid analog that is hydroxylated by CYP102A1 and CYP102A2 to yield p-nitrophenolate (Schwaneberg et al., Anal Biochem 269,359-366 (1999)). […] When hydroxylation rates for the parent CYP102 enzymes were monitored using the maximum soluble concentrations of these substrates, activity could only be detected on 2-phenoxy-ethanol.
Chimeras were assayed for peroxygenase activity on 12-pNCA, 2-phenoxy -ethanol and allyloxy-benzene. […] Rates are reported in nmol product/nmol P450/minute. […] Those with no activity include 65-256 and 277-365. Those with new activity include 165-256, 191-335, and 43-135.
This Example provides one method by which peroxygenase activity of a P450 enzyme may be characterized. First order rates for p-nitrophenolate accumulation were determined using 1 μM enzyme, 20 mM H2O2, 250 μM 12-pNCA and 0.5% dimethyl sulfoxide (DMSO) in 100 mM Tris-HCl (pH 8.2) at room temperature. Enzyme, substrate, buffer and DMSO were combined in a cuvette and zeroed at 410 nm. Reaction mixtures were incubated for 4 minutes and initiated by the addition of H2O2 to a final concentration of 20 mM. Initial rates were determined by monitoring the accumulation of p-nitrophenolate at 410 nm, and data from the first six seconds were used to determine initial rates. […] The extinction coefficient of p-nitrophenolate is 13,200 M^−1cm^−1 (Schwaneberg et al., Anal Biochem 269:359-366 (1999)).
(§2) Rates on 2-phenoxy-ethanol and allyloxy-benzene were determined using 2 μM enzyme, 20 mM H2O2, 1% DMSO, and 1% acetone in 100 mM N-[2-hydroxyethyl]piperazine-N′-[3-propanesulfonic acid] (Epps) (pH 8.2) at room temperature. Substrate concentrations for 2-phenoxy-ethanol (100 mM) and allyloxy benzene (50 mM) maintained saturation. Reactions were initiated by the addition of H2O2 and quenched at appropriate times using an equal volume of a solution containing 4M urea and 100 mM NaOH. 120 μl of 0.6% 4-AAP was added, followed by mixing and addition of 120 μl of 0.6% potassium persulfate. Color was allowed to develop for 20 minutes before absorbance was read at 500 nm. Rates were determined from the linear region of the time course. The major products were determined by GC/MS to be the hemiacetal, which decomposes to phenol. The extinction coefficient for the 4-AAP/phenol complex was determined to be 4,800 M^−1cm^−1. The results can be seen in FIG. 4.

[2] = Thermostability (loss of Soret band at increasing temperatures); assay type: physicochemical; conditions: cell extracts heated 10 minutes
Procedure: Thermostability was assayed by monitoring the loss of the Soret band at increasing temperatures. […] However, thermostability may be important for retention of catalytic activity: the two chimeras that lacked peroxygenase activity were also the least thermostable.
Cell extracts were heated in a thermocycler for 10 minutes at various temperatures, followed by cooling to 4° C. Extracts were centrifuged for 5 minutes at 3500×g to remove any precipitates. Carbon monoxide reduced difference spectroscopy was used to quantitate the amount of P450. The reduction of the carbon monoxide peak was monitored over a range of temperatures.

[3] = Peroxidase activity with ABTS and H2O2; assay type: biochemical; conditions: for Peroxidase activity: 10 mM ABTS, 20 mM H2O2, pH 5.0, activities <0.2 not detectable (N.D.); for peroxidase activity relative to parents: ABTS
Excerpt: P450s can reduce peroxide to water (and a proton) using a mechanism similar to that of peroxidases, although the intrinsic rate for P450s is many orders of magnitude slower. (Mansuy, D., Comp Biochem Physiol C Pharmacol Toxicol Endocrinol 121, 5-14 (1998)). It has been proposed that the earliest P450 function may have been as a peroxidase. (Gotoh, O., Cytochrome P450, 2nd Edition, pp. 255-272 (1993)). To investigate how recombination affects P450 peroxidase activity, the colorimetric substrate 2,2′-azino-bis(3-ethylbenzothiazoline-6-sulfonate) (ABTS) was used to monitor this reaction (Childs et al., Biochem J 145,93-103 (1975)).
This example provides an example of how one can measure peroxidase activity. Initial rates of peroxidase activity were measured by monitoring the accumulation of the radical cation of ABTS at 414 nm (Childs et al., Biochem J., 145:93-103 (1975)). Enzyme (1 μM) was mixed with 10 mM ABTS in 200 mM phosphate buffer (pH 5.0) in a cuvette at room temperature. Samples were zeroed and reactions were initiated with the addition of H2O2 to a concentration of 20 mM. The absorbance at 414 nm was monitored for 5 minutes. Rates were determined from the steepest portion of the time course. An extinction coefficient of […] for ABTS was used.

[4] = Peroxygenase activity on 2-phenoxy-ethanol (4-AAP assay); assay type: biochemical
Procedure: as §1, §2

Molecule | Mammalian P450 (main mammalian P450 responsible for breakdown) (Mammalian P450) | substrate activity profile relative to parents [1] | Tm [2] | Peroxidase activity [3] | peroxidase activity relative to parents [3] | also measured
Nc1ccc(-c2ccccc2)cc1 [4-aminobiphenyl] | CYP1A2 |  |  |  |  | 
O=C(O)Cc1ccccc1Nc1c(Cl)cccc1Cl [Diclofenac] | CYP2C9 |  |  |  |  | 
Nc1c2c(nc3ccccc13)CCCC2 [Tacrine, 9-amino-1,2,3,4-tetrahydroacridine hydrochloride hydrate] | CYP1A2 |  |  |  |  | 
CCCCNC(=O)NS(=O)(=O)c1ccc(C)cc1 [Tolbutamide] | CYP2C9 |  |  |  |  | 
COc1ccc(C(c2ccc(OC)cc2)C(Cl)(Cl)Cl)cc1 [methoxychlor] | CYP2B6 |  |  |  |  | 
B1 |  | parent-like profiles | 52 °C | 10.4 nmol product/nmol P450/min | significantly higher peroxidase activities | 
B2 |  | no activity | 36 °C |  | no detectable peroxidase activity | 
B3 |  | no activity | 39 °C |  | no detectable peroxidase activity | 
B4 |  | altered activity | 55 °C | 6.8 nmol product/nmol P450/min |  | fold higher peroxygenase activity with 2-phenoxy-ethanol than the most active parent (CYP102A1) [4]: 6 fold; peroxygenase activity on 2-phenoxy-ethanol ([4]; 100 mM substrate): highest activity
B5 |  | parent-like profiles | 47 °C | 34.3 nmol product/nmol P450/min | significantly higher peroxidase activities | 
